In publication PMC4299599, “Quantification of cytosolic interactions identifies Ede1 oligomers as key organizers of endocytosis” (Molecular Systems Biology, 2014):

Key:
Sla2 = target: T1, Sla2 (S. cerevisiae, UniProt P33338 1-968); assay: fluorescence cross-correlation spectroscopy (FCCS); in the cytoplasm of living yeast cells; first-named protein green (3myeGFP or 1myeGFP; eGFP for Don1), second red (3mCherry); self-interaction in diploid strains with one allele of each colour; apparent or effective KD (Kdeff) from single-cell measurements; only Kdeff values < 1000 nM are shown; values for self-interactions are upper limits; details: partners not purified
T1 construct: Sla2, S. cerevisiae; also called Sla2-3myeGFP; Sla2-3mCherry; source: chromosomally tagged at the endogenous locus, in the cytoplasm of living S. cerevisiae cells
T1 sequence (looked up): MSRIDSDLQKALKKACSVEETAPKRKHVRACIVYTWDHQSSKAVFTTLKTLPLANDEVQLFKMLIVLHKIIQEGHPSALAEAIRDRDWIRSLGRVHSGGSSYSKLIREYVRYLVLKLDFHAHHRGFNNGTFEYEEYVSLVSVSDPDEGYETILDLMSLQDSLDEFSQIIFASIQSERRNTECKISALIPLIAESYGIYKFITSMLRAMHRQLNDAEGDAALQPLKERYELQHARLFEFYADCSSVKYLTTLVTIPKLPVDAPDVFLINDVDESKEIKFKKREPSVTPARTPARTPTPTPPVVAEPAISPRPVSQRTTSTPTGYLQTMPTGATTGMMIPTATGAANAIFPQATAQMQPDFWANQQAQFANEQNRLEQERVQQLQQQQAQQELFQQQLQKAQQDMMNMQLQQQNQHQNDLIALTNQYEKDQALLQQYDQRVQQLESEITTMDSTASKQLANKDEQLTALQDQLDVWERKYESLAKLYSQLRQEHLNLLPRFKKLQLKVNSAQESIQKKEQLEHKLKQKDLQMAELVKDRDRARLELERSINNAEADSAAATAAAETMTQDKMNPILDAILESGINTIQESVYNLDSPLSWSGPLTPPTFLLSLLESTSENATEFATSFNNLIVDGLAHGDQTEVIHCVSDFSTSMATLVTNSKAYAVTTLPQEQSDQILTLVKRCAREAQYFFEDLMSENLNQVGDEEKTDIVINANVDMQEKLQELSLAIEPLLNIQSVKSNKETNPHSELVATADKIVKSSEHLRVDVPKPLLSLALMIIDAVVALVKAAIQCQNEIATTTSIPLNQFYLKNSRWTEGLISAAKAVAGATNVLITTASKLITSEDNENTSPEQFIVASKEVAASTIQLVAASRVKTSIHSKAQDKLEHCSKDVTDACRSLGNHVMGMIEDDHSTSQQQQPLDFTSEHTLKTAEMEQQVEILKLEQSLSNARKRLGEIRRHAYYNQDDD

Pan1 = target: T2, Pan1 (S. cerevisiae, UniProt P32521 1-1480); assay: as above; details: partners not purified
T2 construct: Pan1, S. cerevisiae; also called Pan1-1myeGFP; Pan1-3mCherry; source: chromosomally tagged at the endogenous locus, in the cytoplasm of living S. cerevisiae cells
T2 sequence (looked up): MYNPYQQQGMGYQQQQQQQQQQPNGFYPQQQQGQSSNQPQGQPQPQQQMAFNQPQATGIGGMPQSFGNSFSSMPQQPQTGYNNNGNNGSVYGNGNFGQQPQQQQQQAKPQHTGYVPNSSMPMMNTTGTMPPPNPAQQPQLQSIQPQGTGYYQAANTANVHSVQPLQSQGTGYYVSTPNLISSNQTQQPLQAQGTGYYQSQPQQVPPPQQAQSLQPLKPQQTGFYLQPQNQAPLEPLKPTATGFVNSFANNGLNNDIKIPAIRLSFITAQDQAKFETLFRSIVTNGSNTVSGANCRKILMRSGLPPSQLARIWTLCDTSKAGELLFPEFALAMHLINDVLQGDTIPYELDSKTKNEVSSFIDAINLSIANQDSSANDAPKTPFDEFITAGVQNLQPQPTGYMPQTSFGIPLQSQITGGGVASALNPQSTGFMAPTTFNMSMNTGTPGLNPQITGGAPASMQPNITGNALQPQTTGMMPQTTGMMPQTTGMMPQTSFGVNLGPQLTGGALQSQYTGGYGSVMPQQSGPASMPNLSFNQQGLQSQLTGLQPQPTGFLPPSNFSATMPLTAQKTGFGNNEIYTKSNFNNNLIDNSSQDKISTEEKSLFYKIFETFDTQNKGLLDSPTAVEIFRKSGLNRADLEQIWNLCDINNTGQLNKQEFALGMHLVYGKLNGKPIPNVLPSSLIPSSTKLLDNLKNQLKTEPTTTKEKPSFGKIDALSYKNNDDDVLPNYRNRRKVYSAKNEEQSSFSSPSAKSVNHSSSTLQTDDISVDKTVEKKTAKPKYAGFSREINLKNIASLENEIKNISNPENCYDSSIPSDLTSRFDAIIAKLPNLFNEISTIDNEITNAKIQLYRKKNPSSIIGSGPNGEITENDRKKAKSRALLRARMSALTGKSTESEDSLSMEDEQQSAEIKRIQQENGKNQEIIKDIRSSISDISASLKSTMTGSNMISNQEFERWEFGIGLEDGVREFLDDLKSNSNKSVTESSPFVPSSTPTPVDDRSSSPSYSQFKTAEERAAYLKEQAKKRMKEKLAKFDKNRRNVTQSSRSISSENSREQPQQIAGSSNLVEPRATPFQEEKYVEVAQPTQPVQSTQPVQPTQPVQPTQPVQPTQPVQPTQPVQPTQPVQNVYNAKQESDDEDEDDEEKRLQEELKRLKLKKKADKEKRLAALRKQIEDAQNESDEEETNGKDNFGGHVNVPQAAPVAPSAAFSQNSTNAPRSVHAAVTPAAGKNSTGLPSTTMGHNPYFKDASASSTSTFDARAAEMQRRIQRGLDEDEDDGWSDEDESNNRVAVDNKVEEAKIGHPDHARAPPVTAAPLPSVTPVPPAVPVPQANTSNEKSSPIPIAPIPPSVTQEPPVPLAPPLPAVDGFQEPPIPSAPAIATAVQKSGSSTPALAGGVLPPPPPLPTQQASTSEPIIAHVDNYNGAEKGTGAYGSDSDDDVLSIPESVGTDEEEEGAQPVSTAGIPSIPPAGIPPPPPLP

- Kd (Sla2): 622 nM
- Kd (Pan1): 27 nM
B1: End3 (natural protein, S. cerevisiae, UniProt P39013 1-349, looked up)
chain: MPKLEQFEIKKYWQIFSGLKPIENKVNHDQVLPILYNSKLDSSVLNKIWFLADIDDDDNLDFEEFVICMRLIFDMVNKNISSVPDELPDWLIPGSKVNLIKERKKRKQIENADLPPKKEIKVDWYMSPDDLNQYEKIYNSCAKLTDGTITFNELSTKLSTKFFNISKTDLNKVWSLINPQNLPSIDRDPTFYFIHCLRQRNDLGAEIPASLPNSLAEVCNKKQLSYDLRSSQPPTKRKEEANEVDNLRDNGQNSSSDSSGSNVLSNEDSIKQKYASLTDDQVANMREQLEGLLNYKKSEKTQGGSKLSKRINIRSITDDLDNIEQQVEVLENYLNNKRHELQALQAEIN
notes: End3, S. cerevisiae; also called End3-3myeGFP; End3-3mCherry; source: chromosomally tagged at the endogenous locus, in the cytoplasm of living S. cerevisiae cells
